Source: US6831059 (ALLERGAN SALES, dated 2004)

Key:
[1] = target: native BoNT/A H chain (UniProt P0DPI0)
[2] = target: native TeTx H chain (UniProt P04958)
[3] = target: T1, native TeTx H chain (UniProt P04958 458-1315); experiment: reassociation by dialysis, non-reducing SDS-PAGE, silver staining
T1 sequence: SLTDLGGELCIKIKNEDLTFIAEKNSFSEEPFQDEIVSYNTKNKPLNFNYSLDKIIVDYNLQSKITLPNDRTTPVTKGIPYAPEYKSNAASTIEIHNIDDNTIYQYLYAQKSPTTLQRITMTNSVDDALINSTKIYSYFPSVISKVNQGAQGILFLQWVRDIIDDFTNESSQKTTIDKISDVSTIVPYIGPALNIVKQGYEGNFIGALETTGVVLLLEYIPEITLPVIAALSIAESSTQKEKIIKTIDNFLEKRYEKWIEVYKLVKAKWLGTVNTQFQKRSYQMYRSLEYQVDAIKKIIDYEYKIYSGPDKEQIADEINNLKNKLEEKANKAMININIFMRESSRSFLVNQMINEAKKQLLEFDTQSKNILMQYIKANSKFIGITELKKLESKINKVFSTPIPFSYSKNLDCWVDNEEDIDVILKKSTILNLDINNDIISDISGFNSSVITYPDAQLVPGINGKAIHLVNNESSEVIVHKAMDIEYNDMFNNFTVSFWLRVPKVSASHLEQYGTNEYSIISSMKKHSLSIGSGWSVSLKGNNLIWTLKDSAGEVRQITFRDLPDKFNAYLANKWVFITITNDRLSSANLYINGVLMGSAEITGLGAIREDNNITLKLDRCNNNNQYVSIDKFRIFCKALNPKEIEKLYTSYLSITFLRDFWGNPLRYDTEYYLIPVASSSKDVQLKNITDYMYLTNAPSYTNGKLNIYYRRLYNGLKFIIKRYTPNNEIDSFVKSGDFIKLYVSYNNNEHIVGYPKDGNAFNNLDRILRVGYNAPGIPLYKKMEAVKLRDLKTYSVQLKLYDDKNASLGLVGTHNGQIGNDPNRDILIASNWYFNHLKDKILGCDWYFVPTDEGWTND

native BoNT/A H chain, sequence (P0DPI0 449-1296 limits assumed): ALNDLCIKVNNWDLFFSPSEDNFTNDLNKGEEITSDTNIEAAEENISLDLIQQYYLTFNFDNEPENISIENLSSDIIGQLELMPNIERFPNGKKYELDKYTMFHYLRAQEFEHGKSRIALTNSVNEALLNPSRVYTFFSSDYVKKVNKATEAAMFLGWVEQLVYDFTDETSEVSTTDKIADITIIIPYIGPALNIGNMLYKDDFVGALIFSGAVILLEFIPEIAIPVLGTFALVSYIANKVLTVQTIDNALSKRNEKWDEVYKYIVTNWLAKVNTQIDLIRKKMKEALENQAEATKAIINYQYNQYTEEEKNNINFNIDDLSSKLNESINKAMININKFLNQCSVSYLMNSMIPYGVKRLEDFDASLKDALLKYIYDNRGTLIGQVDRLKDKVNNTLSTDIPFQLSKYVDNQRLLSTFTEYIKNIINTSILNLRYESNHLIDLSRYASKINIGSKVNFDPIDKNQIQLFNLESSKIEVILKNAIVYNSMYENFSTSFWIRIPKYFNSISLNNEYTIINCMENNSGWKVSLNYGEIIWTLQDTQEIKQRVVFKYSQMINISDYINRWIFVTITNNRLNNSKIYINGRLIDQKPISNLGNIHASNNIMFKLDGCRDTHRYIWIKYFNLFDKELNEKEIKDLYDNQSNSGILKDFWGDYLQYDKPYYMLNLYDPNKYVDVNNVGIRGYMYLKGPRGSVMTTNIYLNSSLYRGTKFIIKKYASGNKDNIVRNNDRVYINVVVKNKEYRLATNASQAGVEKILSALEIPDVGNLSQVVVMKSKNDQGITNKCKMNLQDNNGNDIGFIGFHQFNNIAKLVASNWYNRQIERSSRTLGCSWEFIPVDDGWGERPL

## native BoNT/A L chain (from UniProt P0DPI0 2-448) (enzyme)
[1]
  proportion of L chain reassociated with the H chain: > 90%

## recombinant wild-type TeTx L chain (from UniProt P04958 1-457) (enzyme)
[2]
  relative amount of the dichain species: 55.1%

B1: native TeTx L chain (enzyme)
chain: PITINNFRYSDPVNNDTIIMMEPPYCKGLDIYYKAFKITDRIWIVPERYEFGTKPEDFNPPSSLIEGASEYYDPNYLRTDSDKDRFLQTMVKLFNRIKNNVAGEALLDKIINAIPYLGNSYSLLDKFDTNSNSVSFNLLEQDPSGATTKSAMLTNLIIFGPGPVLNKNEVRGIVLRVDNKNYFPCRDGFGSIMQMAFCPEYVPTFDNVIENITSLTIGKSKYFQDPALLLMHELIHVLHGLYGMQVSSHEIIPSKQEIYMQHTYPISAEELFTFGGQDANLISIDIKNDLYEKTLNDYKAIANKLSQVTSCNDPNIDIDSYKQIYQQKYQFDKDSNGQYIVNEDKFQILYNSIMYGFTEIELGKKFNIKTRLSYFSMNHDPVKIPNLLDDTIYNDTEGFNIESKDLKSEYKGQNMRVNTNAFRNVDGSGLVSKLIGLCKKIIPPTNIRENLYNRTA
[3]
  binding result: binds
